How the values were obtained:
[1] = biological target: T1, Mouse Complement C5 Protein (mouse, UniProt P06684 19-1680, limits assumed, biotinylated in the Octet assay (sites not given)); experiment: BLI (OctetRED384), biotinylated mouse C5 on SA biosensor, BB5.1 IgG as analyte, 30 C
T1 construct: native C5 of normal mouse serum in the hemolysis assays; also called Mouse C5; mC5

[2] = biological target: T1, Mouse Complement C5 Protein; experiment: BLI (OctetRED384), biotinylated mouse C5 on SA biosensor, BB5.1-Fab-His6 as analyte, 30 C
Method: (§1) The assay was performed at 30° C. and at 1000 rpm. Biotinylated mouse C5 antigen was firstly immobilized onto SA biosensor.

[3] = biological target: T1, Mouse Complement C5 Protein; experiment: BLI (OctetRED384), biotinylated mouse C5 on SA biosensor, BB5.1 scFv.LH as analyte, 30 C
Method: as §1

[4] = biological target: T2, Cyno Complement C5 Protein (cynomolgous macaque); experiment: BLI (OctetRED384), biotinylated cyno C5 on SA biosensor, Crovalimab IgG as analyte, 30 C
T2 construct: also called Cyno C5; Biotinylated cyno C5 antigen
Method: The assay was performed at 30° C. and at 1000 rpm. Biotinylated cyno C5 antigen was firstly immobilized onto SA biosensor.

[5] = biological target: T1, Mouse Complement C5 Protein; experiment: BLI (OctetRED384), biotinylated mouse C5 on SA biosensor, Crovalimab IgG as analyte, 30 C
Method: as §1

[6] = biological target: T1, Mouse Complement C5 Protein; experiment: BLI (OctetRED384), biotinylated mouse C5 on SA biosensor, Crovalimab-Fab-His6 as analyte, 30 C
Method: as §1

[7] = biological target: T2, Cyno Complement C5 Protein; experiment: BLI (OctetRED384), biotinylated cyno C5 on SA biosensor, Crovalimab-Fab-His6 as analyte, 30 C
[8] = biological target: T1, Mouse Complement C5 Protein; experiment: BLI (OctetRED384), biotinylated mouse C5 on SA biosensor, Crovalimab scFv.HL as analyte, 30 C
Method: as §1

[9] = biological target: T2, Cyno Complement C5 Protein; experiment: BLI (OctetRED384), biotinylated cyno C5 on SA biosensor, Crovalimab scFv.HL as analyte, 30 C

B1: BB5.1 IgG (full-length mAb) (antibody, V domains shown)
VH: QVQLQQPGAELVRPGTSVKLSCKASGYTFTSSWMHWVKQRPGQGLEWIGVIDPSDSYTNYNQKFKGKATLTVDTSSSTAYMQLSSLTSEDSAVYYCARGGGSSYNRYFDVWGTGTTVTVSS
VL: NIMMTQSPSSLAVSAGEKVTMSCKSSQSVLYSSNQKNYLAWYQQKPGQSPKLLIYWASTRESGVPDRFTGSGSGTDFTLTISSVQAEDLAVYYCHQYLSSRTFGGGTKLEIKR
notes: Surrogate anti-mouse C5 mAb; purified recombinant protein expressed in HEK293 cells; also called Anti-mC5 IgG; BB5.1 full-length mAb
Kd [1]: 12.1 pM

B2: BB5.1-Fab-His6 (Fab, V domains shown)
VH: B1 VH
VL: B1 VL
notes: also called Anti-mC5 Fab; BB5.1 Fab mAb
Kd [2]: 3470 pM

B3: BB5.1 scFv.LH (scFv)
scFv: NIMMTQSPSSLAVSAGEKVTMSCKSSQSVLYSSNQKNYLAWYQQKPGQSPKLLIYWASTRESGVPDRFTGSGSGTDFTLTISSVQAEDLAVYYCHQYLSSRTFGGGTKLEIKRGGGGSGGGGSGGGGSQVQLQQPGAELVRPGTSVKLSCKASGYTFTSSWMHWVKQRPGQGLEWIGVIDPSDSYTNYNQKFKGKATLTVDTSSSTAYMQLSSLTSEDSAVYYCARGGGSSYNRYFDVWGTGTTVTVSS
notes: also called Anti-mC5 scFV; BB5.1 scFv mAb
Kd [3]: 3690 pM

B4: Crovalimab IgG (full-length mAb) (antibody, V domains shown)
VH: QVQLVESGGGLVQPGRSLRLSCAASGFTVHSSYYMAWVRQAPGKGLEWVGAIFTGSGAEYKAEWAKGRVTISKDTSKNQVVLTMTNMDPVDTATYYCASDAGYDYPTHAMHYWGQGTLVTVSS
VL: DIQMTQSPSSLSASVGDRVTITCRASQGISSSLAWYQQKPGKAPKLLIYGASETESGVPSRFSGSGSGTDFTLTISSLQPEDFATYYCQNTKVGSSYGNTFGGGTKVEIKR
notes: also called Anti-hC5 IgG; Crovalimab full-length mAb
Kd [4]: 13.1 pM | Kd [5]: 22.9 pM

B5: Crovalimab-Fab-His6 (Fab, V domains shown)
VH: B4 VH
VL: B4 VL
notes: also called Anti-hC5 Fab; Crovalimab Fab mAb
Kd [6]: 4140 pM | Kd [7]: 60.2 pM

B6: Crovalimab scFv.HL (scFv)
scFv: QVQLVESGGGLVQPGRSLRLSCAASGFTVHSSYYMAWVRQAPGKGLEWVGAIFTGSGAEYKAEWAKGRVTISKDTSKNQVVLTMTNMDPVDTATYYCASDAGYDYPTHAMHYWGQGTLVTVSSGGGGSGGGGSGGGGSDIQMTQSPSSLSASVGDRVTITCRASQGISSSLAWYQQKPGKAPKLLIYGASETESGVPSRFSGSGSGTDFTLTISSLQPEDFATYYCQNTKVGSSYGNTFGGGTKVEIKR
notes: also called Anti-hC5 scFV; Crovalimab scFv mAb
Kd [8]: 4540 pM | Kd [9]: 84.5 pM

From patent publication US20260034246A1 (REGENXBIO, published 2026)
